{
  "source": "paper PMC5966295",
  "about": "“Crystal structures of murine and human Histamine-Releasing Factor (HRF/TCTP) and a model for HRF dimerisation in mast cell activation” (Molecular Immunology, 2018)",
  "proteins": {"B1": {"name": "human Histamine-Releasing Factor (natural protein, UniProt P13693 1-172, looked up)", "chain": "MIIYRDLISHDEMFSDIYKIREIADGLCLEVEGKMVSRTEGNIDDSLIGGNASAEGPEGEGTESTVITGVDIVMNHHLQETSFTKEAYKKYIKDYMKSIKGKLEEQRPERVKPFMTGAAEQIKHILANFKNYQFFIGENMNPDGMVALLDYREDGVTPYMIFFKDGLEMEKC", "notes": "Histamine-Releasing Factor (HRF/TCTP), human, wild type; Met1 to Cys172, followed by the C-terminal purification tag Leu173-His180; The tag is ordered in the crystals and contributes about 25% of the hHRF-2 dimer interface; In hHRF-2 the two chains are joined by an intermolecular disulphide bond Cys172-Cys172; also called hHRF; HRF; source: prepared according to a previously described protocol …"}},
  "molecular_target": "the molecule itself",
  "test": "crystal structure; hHRF-2 crystal form, 1.4 Å; crystals grown at 18 °C in 0.1 M MES pH6.0 and 20% (w/v) PEG 2000 MME; two molecules in the asymmetric unit, disulphide-linked dimer",
  "data": [
    {"protein": "B1", "values": [
      {"measurement": "stoichiometry N", "value": 2}
    ]}
  ]
}
